B1: Zinc finger MYM-type protein 3, residues 589 to 668; numbered along this chain, Q14202 (parent)
chain: LSCHYCHSLFSGKPEVLDWQDQVFQFCCRDCCEDFKRLRGVVSQCEHCRQEKLLHEKLRFSGVEKSFCSEGCVLLYKQDF

Variants of: B1
Assay: abundance fitness (aPCA) (normalised: wild type 0, dead -1); higher = more abundant; growth selection in yeast, the domain comes from the species named
Details: Homo sapiens

Abundance fitness of substitutions, site by site:
L1: A -0.012 | C 0.004 | E 0.082 | F 0.279 | G -0.034 | I 0.363 | K 0.016 | M 0.442 | N 0.239 | P -0.436 | Q -0.703 | R -0.439 | S -0.206 | T 0.098 | V 0.364 | W -0.641 | Y 0.047
S2: A 0.106 | D 0.412 | E 0.159 | F 0.141 | G 0.157 | H 0.281 | I 0.311 | K 0.354 | L 0.081 | M 0.243 | N 0.48 | P -0.39 | R 0.12 | T -0.051 | V 0.135 | W -0.069 | Y 0.293
C3: A -0.906 | D -1.04 | E -0.823 | F -0.63 | G -1.01 | H -1.17 | I -1.02 | K -0.837 | L -0.896 | M -0.505 | N -1.11 | P -1.06 | Q -0.998 | R -0.949 | S -1.06 | T -0.936 | V -0.871 | Y -0.984
H4: A 0.28 | C 0.26 | D 0.128 | E 0.174 | F 0.128 | G 0.29 | I -0.064 | K 0.179 | L -0.05 | M 0.227 | N 0.225 | P -0.061 | Q 0.088 | R 0.115 | S 0.248 | T 0.19 | V 0.054 | W 0.079 | Y 0.116
Y5: A 0.267 | C 0.01 | D -0.615 | E -0.081 | F 0.095 | G 0.156 | H -0.066 | I -0.061 | K 0.294 | L 0.082 | M 0.313 | N 0.021 | P -0.906 | Q 0.203 | R 0.19 | T -0.009
C6: D -1.01 | F -1.2 | G -1.05 | H -0.821 | M -0.325 | P -0.949 | Q -0.892 | R -0.919 | V -0.995 | W -0.978 | Y -0.828
H7: A 0.154 | D 0.226 | E 0.158 | F 0.165 | G 0.117 | I 0.088 | K 0.055 | M -0.133 | N 0.126 | Q -0.12 | R 0.049 | S 0.237 | T 0.124 | V -0.145 | W -0.187 | Y 0.112
S8: A 0.321 | D 0.076 | E 0.154 | F -0.039 | G 0.248 | H 0.188 | I 0.309 | K 0.486 | L 0.062 | M 0.355 | N 0.297 | P -1.19 | Q 0.397 | R 0.332 | T 0.246 | V 0.374 | W -0.015 | Y 0.192
L9: C -0.184 | D -0.073 | E -0.021 | F -0.062 | G 0.121 | K -0.096 | M -0.097 | N -0.121 | P 0.15 | Q 0.093 | R -0.012 | S 0.009 | T 0.083 | V 0.015 | W -0.095
F10: A -0.316 | D -0.623 | E -0.691 | G -0.408 | H -0.043 | I -0.115 | K -0.535 | N -0.373 | P -0.052 | Q -0.685 | R -0.498 | S -0.316 | T -0.16 | W -0.298 | Y -0.191
S11: A -0.374 | C -0.512 | E -0.276 | F -0.397 | G -0.169 | I -0.312 | L -0.374 | M -0.426 | P -0.454 | Q -0.275 | R -0.406 | T -0.155 | V -0.418 | W -0.565
G12: A 0.013 | C -0.272 | D -0.274 | E 0.034 | F -0.384 | H -0.15 | I -0.395 | K -0.02 | L -0.261 | M -0.143 | N -0.187 | P -0.227 | Q -0.003 | R -0.145 | S -0.038 | T 0.039 | V -0.267 | W -0.27 | Y -0.75
K13: A -0.037 | C -0.117 | D 0.019 | E -0.001 | F -0.135 | G -0.162 | H -0.043 | I -0.098 | L -0.048 | M -0.444 | N -0.198 | P 0.042 | Q 0.039 | R 0.05 | S -0.062 | T -0.081 | V -0.169 | Y -0.389
P14: A -0.223 | C -0.6 | D -0.24 | E -0.309 | F -0.371 | G -0.206 | H -0.212 | I -0.264 | L -0.523 | M -0.169 | N -0.153 | Q -0.39 | R -0.459 | S -0.386 | T -0.381 | V -0.246 | W -0.528
E15: A -0.075 | C 0.008 | D -0.155 | F -0.049 | G -0.56 | H -0.017 | I 0.093 | K -0.46 | L -0.014 | M 0.152 | N -0.015 | Q -0.086 | S -0.108 | T 0.076 | V 0.057 | W -0.033
V16: C -0.003 | D -0.702 | E -0.072 | F -0.229 | G -0.208 | H -0.044 | I -0.121 | K -0.11 | L -0.065 | M 0.022 | N -0.033 | P -0.099 | Q 0.003 | R 0.004 | S 0.011 | T -0.03 | W -0.206 | Y -0.041
L17: A -0.035 | C -0.077 | D -0.332 | E -0.146 | F -0.079 | G -0.135 | H -0.017 | I -0.009 | K -0.359 | M 0.043 | N -0.53 | P -0.311 | Q -0.015 | R -0.348 | S -0.262 | T -0.06 | V -0.027 | W -0.135 | Y -0.202
D18: A -0.007 | C -0.107 | E -0.06 | F -0.101 | G -0.083 | H -0.08 | I -0.039 | K -0.028 | L 0.036 | M 0.175 | N 0.138 | P 0.236 | Q 0.067 | R 0.155 | S 0.017 | V -0.073 | Y -0.127
W19: A 0.175 | C 0.276 | D -0.035 | E 0.201 | F 0.364 | G 0.105 | H 0.137 | I 0.234 | K 0.183 | L 0.332 | M 0.48 | N 0.225 | P 0.224 | Q 0.225 | R 0.157 | S 0.365 | T 0.326 | V 0.167 | Y 0.269
Q20: A 0.265 | D 0.456 | E 0.492 | F 0.198 | G 0.334 | H -0.021 | K 0.456 | L 0.08 | M 0.394 | N 0.348 | P 0.179 | R 0.151 | S 0.245 | V 0.032 | W 0.014
